Common to all, as to assay: BLI heatmap
Assay [1] addresses T1, IA peptide IAKLDEESILKQK (XAKLDEESILKQK, X = I).
T1 construct: Immobilized on the biolayer interferometry sensor
T1 peptide: IAKLDEESILKQK

Assay [2] addresses T2, VA peptide VAKLDEESILKQK (XAKLDEESILKQK, X = V).
T2 construct: Immobilized on the biolayer interferometry sensor
T2 peptide: VAKLDEESILKQK

In assay [3] the target is T3, F peptide FAKLDEESILKQK (XAKLDEESILKQK, X = F).
T3 construct: Immobilized on the biolayer interferometry sensor
T3 peptide: FAKLDEESILKQK

Assay [4] concerns the target T4, LA peptide LAKLDEESILKQK (XAKLDEESILKQK, X = L).
T4 construct: Immobilized on the biolayer interferometry sensor
T4 peptide: LAKLDEESILKQK

Assay [5] has as its target T1, IA peptide IAKLDEESILKQK ….
Assay [6] has as its target T3, F peptide FAKLDEESILKQK (XAKLDEESILKQK, …).

Read-outs that look alike come from different tables or passages of the source.

B1: PS393 (other)
chain: MSDEDGEDGDENAVGIATRTRTRTKKPTPYRVLLLNDDYTPMEFVVLVLQRFFRMSIEDATRVMLQVHQKGVGVCGVFTYEVAETKVSQVIDFARQNQHPLQCTLEKA
In the case of B1, the binding result is listed as “no binding” in assay [1], “no binding” in assay [2] and “binds” in assay [3].

B2: PS433 (other)
chain: MMSSLKECSIQALPSLDEKTKTEEDLSVPWKVIVLNDPVNLMSYVVMVFRKVFGYNENKATKHMMEVHQLGKSVLWTGQREEAECYAYQLQRWRLQTILEKDD
For the molecule B2, the figures for the binding result in assay [1], in assay [2] and in assay [3] were “no binding”, “no binding” and “binds”, respectively.

B3: PS434 (other)
chain: MSRLPWKQEAKFAATVIIDFPDATLEAPTIEKKEATEQQIEMPWNVVVHNDPVNLMSYVTMVFQRVFGYPRERAEKHMLEVHHSGRSILWSGLRERAELYVQQLHGYLLLATIEKTV
Turning to B3, the binding result in assay [1] is given as “no binding”; in assay [2], “no binding”; in assay [3], “binds”.

B4: PS549 (other)
chain: MSESITTLPKKSRRLKEEEEQKTKRQPPYNVILLNDDDHTFEYVIFMLQKLFGHPPERGMQMAKEVHTTGRVIVMTTALELAELKRDQIHAFGPDPLIDRCKGSMSATIEPAPI
In the case of B4, the results for the binding result in assay [4], in assay [5] and in assay [6] were “binds”, “binds” and “no binding”, respectively.

B5: PS578 (other)
chain: MSGTVVESKPRNSTQLAPRWKVIVHDDPVTTFDFVLGVLRRVFAKPPGEARRITREAHDTGSALVDVLALEQAEFRRDQAHSLARAEGFPLTLTLEPAD
In the case of B5, the binding result in assay [4] and in assay [6] was “binds” in each case.

B6: PS409 (other)
chain: MPARLTDIEGEPNTDPVEDVLLADPELKKPQMYAVVMYNDDYTPMEFVVDVLQNHFKHTLDSAISIMLAIHQQGKGIAGIYPKDIAETKAQTVNRKARQAGYPLLSQIEPQG
Consider B6, for which the binding result was “no binding” in assay [1], “no binding” in assay [2] and “binds” in assay [3].

B7: PS546 (other)
chain: MSDTITLPGRPEVERDERTRRQPPYNVILHNDDDHTFEYVIVMLNQLFGYPPEKGYEMAKEVHLNGRVIVLTTSKEHAELKRDQIHAFGPDPFSSKDCKGSMSASIEPAY
As to B7, the binding result is reported as “binds” in assay [4], “binds” in assay [5] and “no binding” in assay [6].

B8: PS425 (other)
chain: MTHYFSNILRDQESPKINPKELEQIDVLEEKEHQIILYNDDVNTFEHVIDCLVKICEHNYLQAEQCAYIVHHSGKCSVKTGSLDELVPKCNALLEEGLSAEVV
Take B8: the binding result is “no binding” in assay [1], “no binding” in assay [2] and “binds” in assay [3].

B9: PS422 (other)
chain: MTQIKPQTIPDTDVISQTQSDWQMPDLYAVIMHNDDYTTMDFVVFLLNAVFDKPIEQAYQLMMQIHQTGRAVVAILPYEIAEMKVDEATSLAEQEQFPLFISIEQA
As to B9, the binding result is listed as “no binding” in assay [1], “no binding” in assay [2] and “binds” in assay [3].

B10: PS408 (other)
chain: MTDPPSKGREDVDLATRTKPKTQRPPLYKVLLLNDDFTPMEFVVHILERLFGMTHAQAIEIMLTVHRKGVAVVGVFSHEIAETKVAQVMELARRQQHPLQCTMEKE
Take B10: the binding result in assay [1] is reported as “no binding”; in assay [2], “no binding”; in assay [3], “binds”.

B11: PS395 (other)
chain: MTVSQSKTQGAPAAQSATELEYEGLWRVVVLNDPVNLMSYVVLVFKKVFGFDETTARKHMLEVHEQGRSVVWSGMREKAEAYAFTLQQWHLTTVLEQDEVR
Take B11: the figures for the binding result in assay [1], in assay [2] and in assay [3] were “no binding”, “no binding” and “binds”, respectively.

B12: PS418 (other)
chain: MSDHNIDHDTSVAVHLDVVVREPPMYRVVLLNDDFTPMEFVVELLMHFFRKTAEQATQIMLNIHHEGVGVCGTYPREIAETKVAQVHQHARTNGHPLKCRMEPS
For B12, the binding result in assay [1] is on record as “no binding”; in assay [2] it was “no binding”; in assay [3], “binds”.

B13: PS419 (other)
chain: MEKEQSLCKEKTHVELSEPKHYKVVFHNDDFTTMDFVVKVLQLVFFKSQLQAEDLTMKIHLEGSATAGIYSYDIAQSKAQKTTQMAREEGFPLRLTVEPEDN
For B13, the binding result in assay [1] is listed as “no binding”; in assay [2] it was “no binding”; in assay [3], “binds”.

B14: PS394 (other)
chain: MAERRDTGDDEGTGLGIATKTRSKTKKPTPYRVLMLNDDYTPMEFVVLCLQRFFRMNMEEATRVMLHVHQKGVGVCGVFSYEVAETKVGQVIDFARANQHPLQCTLEKA
For the molecule B14, the binding result in assay [1] was “no binding”; in assay [2], “no binding”; in assay [3], “binds”.

B15: PS412 (other)
chain: MATKREGSTLLEPTAAKVKPPPLYKVLLLNDDYTPMEFVVLVLKKFFGIDQERATQIMLKVHTEGVGVCGVYPRDIAHTKVEQVVDFARQHQHPLQCTMEES
For the molecule B15, the binding result in assay [1] is listed as “no binding”; in assay [2] it was “no binding”; in assay [3] it was “binds”.

B16: PS407 (other)
chain: MPSNKRQMCLSDIKNSFNESGIVDWHISPRLANEPSEEGDSDLAVQTVPPELKRPPLYAVVLLNDDYTPMEFVIEILQQYFAMNLDQATQVMLTVHYEGKGVAGVYPRDIAETKANQVNNYARSQGHPLLCQIEPKD
B16: the figures for the binding result in assay [1], in assay [2] and in assay [3] were “no binding”, “no binding” and “binds”, respectively.

B17: PS570 (other)
chain: MTGAGASQPSILEETEVRPRLSDGPWKVVLWDDDFHTYEYVIEMLMDVCQMPWEKAFQHAVEVDTRKKTIVFSGELEHAEFVHERILNYGPDPRMGSSKGSMTATLEQ
Regarding B17, the values for the binding result in assay [4], in assay [5] and in assay [6] were “binds”, “binds” and “no binding”, respectively.

B18: PS550 (other)
chain: MPTFTEPEVVNDTRILPPYHVILLNDDDHTYEYVIHMLQTLFGHPQERGFQLAVEVDKKGKAIVFTTSKEHAEFKRDQIHAFGADPLSSKNCKGSMSAVIEPSF
Turning to B18, the binding result in assay [4] is reported as “binds”.

B19: PS575 (other)
chain: MASTQTPDLNEITEESTKSTGGPWRVVLWDDNEHTYEYVIEMLMEICTMTVEKAFLHAVQVDQEKRTVVFSGEFEHAEHVQERILTYGADPRMSNSKGSMSATLEK
With B19, the binding result in assay [4] was “binds”; in assay [5], “binds”; in assay [6] it was “no binding”.

The values above are taken from patent US20210364527A1 (QUANTUM SI, published 2021).
